Drawing on article PMC10407282, “An efficient selenium transport pathway of selenoprotein P utilizing a high-affinity ApoER2 receptor variant and being independent of selenocysteine lyase” (The Journal of Biological Chemistry, 2023), this text covers Kd for 1 molecule.

This experiment deals with T1, ^75Se-labeled selenoprotein P prepared from HepG2 cells (human (endogenous in HepG2), UniProt P49908 20-381, ^75Se label (cells cultured with ^75Se as selenite); selenocysteine residues).
T1 construct: Selenoprotein P, human, secreted by HepG2 cells that express it endogenously; single band at 69 kDa; also called ^75Se-labeled SeP; ^75Se-labeled human SeP; source: endogenous, HepG2 conditioned medium with ^75Se selenite, partially purified (Ni-NTA agarose, PD-10)
T1 sequence (looked up): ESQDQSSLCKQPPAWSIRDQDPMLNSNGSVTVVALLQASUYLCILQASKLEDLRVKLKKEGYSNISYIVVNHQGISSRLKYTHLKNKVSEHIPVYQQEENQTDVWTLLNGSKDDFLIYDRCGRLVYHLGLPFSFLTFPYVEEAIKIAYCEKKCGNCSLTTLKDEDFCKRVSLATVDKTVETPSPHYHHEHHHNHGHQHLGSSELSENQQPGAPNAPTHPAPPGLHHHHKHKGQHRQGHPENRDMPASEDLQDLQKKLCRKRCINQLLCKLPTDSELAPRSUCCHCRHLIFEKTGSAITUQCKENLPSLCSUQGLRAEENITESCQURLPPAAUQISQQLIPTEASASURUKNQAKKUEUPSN
Put plainly: radioligand binding; Jurkat cells (1.4 x 10^7) with serial dilution of ^75Se-labeled SeP, 1 h at 4 °C, RPMI 1640 with 0.1% BSA, 0.1% NaN3, 50 mM Hepes pH 7.4; nonspecific binding with 500-fold excess of unlabeled SeP; Scatchard analysis, n = 4. The conditions noted are these: one partner purified.

B1: Apolipoprotein E receptor 2, 140-kDa variant endogenous on Jurkat cells (JΔ5,18) (receptor)
chain: AADPLLGGQGPAKDCEKDQFQCRNERCIPSVWRCDEDDDCLDHSDEDDCPKKTCADSDFTCDNGHCIHERWKCDGEEECPDGSDESEATCTKQVCPAEKLSCGPTSHKCVPASWRCDGEKDCEGGADEAGCATSLGTCRGDEFQCGDGTCVLAIKHCNQEQDCPDGSDEAGCLQGLNECLHNNGGCSHICTDLKIGFECTCPAGFQLLDQKTCGDIDECKDPDACSQICVNYKGYFKCECYPGYEMDLLTKNCKAAAGKSPSLIFTNRHEVRRIDLVKRNYSRLIPMLKNVVALDVEVATNRIYWCDLSYRKIYSAYMDKASDPKEQEVLIDEQLHSPEGLAVDWVHKHIYWTDSGNKTISVATVDGGRRRTLFSRNLSEPRAIAVDPLRGFMYWSDWGDQAKIEKSGLNGVDRQTLVSDNIEWPNGITLDLLSQRLYWVDSKLHQLSSIDFSGGNRKTLISSTDFLSHPFGIAVFEDKVFWTDLENEAIFSANRLNGLEISILAENLNNPHDIVIFHELKQPRAPDACELSVQPNGGCEYLCLPAPQISSHSPKYTCACPDTMWLGPDMKRCYRAPQSTSTTTLASTMTRTVPATTRAPGTTVHRSTYQNHSTETPSLTAAVPSSVSVPRAPSISPSTLSPATSNHSQHYANEDSKMGSTVTAAVIGIIVPIVVIALLCMSGYLIWRNWKRKNTKSMNFDNPVYRKTTEEEDEDELHIGRTAQIGHVYPARVALSLEDDGLP
modifications: highly glycosylated O-linked sugar domain
Usually Kd stands for the concentration at which binding is half-saturated. A higher Kd goes with lower affinity. In turn, B1 had a Kd of 0.67 nM.
